Patent US20090060916A1 (published 2009)
Where a chain is given by its changes, count along the chain named. Where “and” joins values, the source holds several entries; their conditions need not be identical. Equal entries are not always repeated. Each block holds one binder with its values, some of them ahead of it.

Legend:
human IL-13 [1] = biological target: T1, human IL-13 (human, UniProt P35225 35-146, biotinylated on the Biacore chip); test: IL-13 receptor I RBA: FMAT beads, IL-13R alpha1/Fc
T1 construct: also called hIL-13; recombinant human IL-13
Experimental: (§1) The plate was incubated for seven hours before being read in the 8200 cellular detection system (Applied Biosystems).
This molecule was PEGylated via the C terminus using PEG-Maleimide with a branched 40K PEG2-MAL moiety.

human IL-13 [2] = biological target: T1, human IL-13; test: IL-13 receptor I RBA: FMAT beads, IL-13R alpha1/Fc; remark: listed apart in the source
Experimental: as §1

human IL-4 [3] = biological target: T2, human IL-4 (human, UniProt P05112 25-153, biotinylated in the receptor binding assay and on the Biacore chip); test: cell-based or functional assay
T2 sequence (looked up): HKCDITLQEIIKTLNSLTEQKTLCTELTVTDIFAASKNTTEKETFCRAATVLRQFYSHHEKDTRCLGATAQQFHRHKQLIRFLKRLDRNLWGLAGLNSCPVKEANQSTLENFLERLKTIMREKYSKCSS

rhesus IL-4 = biological target: T3, rhesus IL-4 (rhesus, UniProt P51492 25-153); test: inferred from TF-1 proliferation with rhesus IL-4
T3 sequence (looked up): T2 sequence (looked up) with K2N, D4H, T6A, Q8R, K12E, E26K, V29I, F33L, N111D
Experimental: The mixture was incubated for 72 hours at 37° C. 5% CO₂. […] 96® reagent (colorometric reagent for determining viability, Promega, Madison, USA) was then added and the number of cells per well was quantified by measuring the absorbance at 490 nm.
A dose-response of the dAb will determine the ND50 in this set up.

human IL-13 [4] = biological target: T1, human IL-13; test: cell-based or functional assay
cynomolgous IL-13 = cynomolgous IL-13 (cynomolgous, UniProt Q0PW92 19-132, The Biacore assay used biotinylated cIL-13 according to our card. The biotin cannot be carried in the letters.); test: cell-based or functional assay
human IL-13 [5] = biological target: T1, human IL-13; test: cell-based or functional assay; remark: listed apart in the source
human IL-13 [6] = biological target: T1, human IL-13; test: IL-13 sandwich ELISA, competition with coating antibody
Experimental: (§2) A MAXISORP™ plate (high protein binding ELISA plate, Nunc, Denmark) was coated overnight with 2.5 μg/ml coating antibody (Module Set, Bender MedSystems, Vienna, Austria), then washed once with 0.05% (v/v) Tween 20 in PBS before blocking with 0.5% (w/v) BSA 0.05% (v/v) Tween 20 in PBS. […] The plate was then incubated with TMB substrate (KPL, Gaithersburg, USA), and the reaction was stopped by the addition of HCl and the absorbance read at 450 nm.

human IL-13 [7] = biological target: T1, human IL-13; test: cell-based or functional assay; remark: listed apart in the source
human IL-13 [8] = biological target: T1, human IL-13; test: assay not named ('Potency IC50')
human IL-13 [9] = biological target: T1, human IL-13; test: IL-13 receptor binding assay (receptor chain not stated)
human IL-13 [10] = biological target: T1, human IL-13; test: IL-13 receptor binding assay by the legend; IL-13 sandwich ELISA by paragraph 465
human IL-4 [11] = biological target: T2, human IL-4; test: IL-4 RBA: ELISA, IL-4R/Fc coated, biotinylated IL-4
Source text: The wells were washed three times with 0.1% (v/v) Tween 20 in PBS, followed by three washes with PBS, before blocking with 2% (w/v) BSA in PBS. […] The reaction was stopped by the addition of HCl and the absorbance read at 450 nm.

human IL-13 [12] = biological target: T1, human IL-13; test: DOM10 RBA (IL-13 sandwich ELISA per paragraph 473)
Experimental: as §2
These in-line fusions were constructed and expressed as described above. […] After this incubation, the level of cell proliferation was determined.

T1 sequence (P35225 35-146 limits assumed): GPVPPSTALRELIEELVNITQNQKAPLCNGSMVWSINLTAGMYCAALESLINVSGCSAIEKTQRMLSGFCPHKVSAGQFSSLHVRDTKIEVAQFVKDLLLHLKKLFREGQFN
Sequence of cynomolgous IL-13 (Q0PW92 entry or part of it limits assumed, form in doubt): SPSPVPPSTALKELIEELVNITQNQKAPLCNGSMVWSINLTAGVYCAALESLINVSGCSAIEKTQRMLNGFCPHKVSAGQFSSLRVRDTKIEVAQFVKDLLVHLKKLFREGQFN

B1: DOM10-53-343 40K PEG2 MAL (other)
VH: EVQLLESGGGLVQPGGSLRLSCAASGFIFAWYDMGWARQAPGKGLEWVSSIDWHGEVTYYADSVKGRFTISRDNSKNTLYLQMNSLRAEDTAVYYCATAEDEPGYDYWGQGTLVTVSSC
modifications: branched 40K PEG2-MAL on the C-terminal cysteine
- IC50 (human IL-13 [1]): 0.033 nM

B3: DOM9-155-11 (other)
VL: DIQMTQSPSSLSASVGDRVTITCRASRNIGDWLHWYQQKPGKAPKLLIAWASTLDSGVPSRFSGSGSGTDFTLTISSLQPEDFATYYCLQEGWGPPTFGQGTKVEIKR
- average inhibition of HDM induced PBMC proliferation, 100 nM dAb, responding donors (human IL-4 [3]): 34%

B4: DOM9-155-5 (other)
VL: B3 VL with R27L, N28D
notes: Vk dAb
- binding result (rhesus IL-4): binds

B5: DOM10-275-94 (other)
VH: EVQLLESGGGLVQPGGSLRLSCAASGFTFDVAEMDWVRQAPGKGLEWVSTISPSRRGTYYADSVKGRFTISRDNSKNTLYLQMNSLRAEDTAVYYCAKAYTGRSWWGPGTLVTVSS
- EC50, HEK293 STAT6 SEAP reporter assay, hIL-13 (human IL-13 [4]): 2.3 nM
- EC50, HEK293 STAT6 SEAP reporter assay, cIL-13 (cynomolgous IL-13): 2 nM

B7: DOM10-275-101 (other)
VH: B5 VH with E1G, A23V, W105L
- EC50, HEK293 STAT6 SEAP reporter assay, hIL-13 (human IL-13 [4]): 3.6 nM and 2 nM
- EC50, HEK293 STAT6 SEAP reporter assay, cIL-13 (cynomolgous IL-13): 1.8 nM

B9: DOM10-53-234 (other)
VH: GVQLLESGGGLVQPGGSLRLSCAASGFIFAWYDMGWARQAPGKGLEWVSSIDWHGNVTYYADSVKGRFTISRDNSKNTLYLQMNSLRAEDTAVYYCATAEDEPGYDYWGQGTLVTVSS
notes: VH dAb
- ND50, IL-13 induced TF-1 cell proliferation (human IL-13 [5]): 43 nM
- IC50 (human IL-13 [6]): 0.087 nM and 0.081 nM and 0.04 nM

B10: DOM10-53-338 (other)
VH: B9 VH with G1E, H54R
notes: VH dAb
- IC50 (human IL-13 [1]): 0.387 nM
- IC50, IL-13 induced TF-1 proliferation (human IL-13 [7]): 0.423 nM

B13: DOM10-53-343 (other)
VH: B9 VH with G1E, N56E
notes: VH dAb
- IC50 (human IL-13 [1]): 0.136 nM
- IC50 (human IL-13 [9]): 0.23 nM

B18: DOM10-273 (other)
VH: EVQLLESGGGLVQPGGSLRLSCAASGFTFELEEMDWVRQAPGKGLEWVSSISGSGGSTYYADSVKGRFTISRDNSKNTLYLQMNSLRAEDTAVYYCAKAYTGFDYWGQGTLVTVSS
notes: VH dAb
- IC50 (human IL-13 [2]): 600 nM

B20: DOM10-275 (other)
VH: B18 VH with E30D, L31R, S50T, G53P, G56R, S57K, A99H, Y100G
notes: VH dAb
- IC50 (human IL-13 [2]): 1000 nM

B21: DOM10-416 (other)
VH: B18 VH with E30K, L31G, E32S, S50T, G53A, S54D, G56R, S57E, A99S, G102S
notes: VH dAb
- IC50 (human IL-13 [2]): 6000 nM

B24: DOM9-112-210-DOM10-275-1 (bispecific antibody)
chain: EVQLLESGGGLVQPGGSLRLSCAASGFTFRNFGMGWVRQAPGKGLEWVSWIISSGTETYYADSVKGRFTISRDNSKNTLYLQMNSLRAEDTAVYYCAKSLGRFDYWGQGTLVTVSSASTKGPSEVQLLESGGGLVQPGGSLRLSCAASGFTFDREEMDWVRQAPGKGLEWVSTISPSGRKTYYADSVKGRFTISRDNSKNTLYLQMNSLRAEDTAVYYCAKAYTGFDYWGQGTLVTVSS
- IC50 (human IL-13 [12]): 44.9 nM

The remaining lines, values ahead:

- IC50 (human IL-13 [2]): 100 nM
B2: DOM10-176 (other)
VL: DIQMTQSPSSLSASVGDRVTITCRASQWIGPYLNWYQQKPGKAPKLLIYMGSYLQSGVPSRFSGSGSGTDFTLTISSLQPEDFATYYCQQDLYPPYTFGQGTKVEIKR
notes: Vk dAb

- EC50, HEK293 STAT6 SEAP reporter assay, hIL-13 (human IL-13 [4]): 2.8 nM
- EC50, HEK293 STAT6 SEAP reporter assay, cIL-13 (cynomolgous IL-13): 2.5 nM
B6: DOM10-275-100 (other)
VH: B5 VH with E1G, V31S, W105Y

- EC50, HEK293 STAT6 SEAP reporter assay, hIL-13 (human IL-13 [4]): 2.8 nM
- EC50, HEK293 STAT6 SEAP reporter assay, cIL-13 (cynomolgous IL-13): 2 nM
B8: DOM10-275-99 (other)
VH: B5 VH with Q3H, V31S, V93I, W105Y

- IC50 (human IL-13 [1]): 0.169 nM
- IC50, IL-13 induced TF-1 proliferation (human IL-13 [7]): 0.181 nM
B11: DOM10-53-338 30K PEG ALD (other)
VH: B9 VH with G1E, H54R
modifications: 30K PEG-ALD on the N-terminus (alpha-amino group)
notes: also called 30K PEGylated DOM10-53-338 dAb

- IC50 (human IL-13 [2]): 150 nM
- IC50 (human IL-13 [8]): 100 nM
B12: DOM10-53 (other)
VH: B9 VH with I28T, W53D, H54S, N56T, V57Q, D101R, E102D, P103D, G104T, Y105F
notes: VH dAb

- ND50, IL-13 induced TF-1 cell proliferation (human IL-13 [5]): 100 nM
- IC50 (human IL-13 [8]): 0.1 nM
- IC50 (human IL-13 [10]): 0.04 nM
B14: DOM10-53-344 (other)
VH: B9 VH with A37V, N56E
notes: VH dAb

- IC50 (human IL-13 [1]): 0.226 nM
- IC50, IL-13 induced TF-1 proliferation (human IL-13 [7]): 0.231 nM
B15: DOM10-53-338 40K PEG2 NHS (other)
VH: B9 VH with G1E, H54R
modifications: 40K PEG2-NHS on surface lysine residues (positions not stated)
notes: also called 40K PEGylated DOM10-53-338 dAb

- average inhibition of HDM induced PBMC proliferation, 100 nM dAb, responding donors (human IL-4 [3]): 23%
B16: DOM9-112-22 (other)
VH: EVQLLESWGGLVQPGGSLRLSCAASGFTFRNYGMAWVRQAPGKGLEWISWIDASGTETYYADPVKGRFTISRDNSKNTLYLQMNSLRAEDTAVYYCAKSLGRFDYWGQGTLVTVSS

- IC50 (human IL-4 [11]): ~1 nM
- IC50 (human IL-13 [10]): 0.12 nM
B17: DOM9-112 (ASTKGPS) DOM10-53-344 (bispecific antibody)
chain: EVQLLESGGGLVQPGGSLRLSCAASGFTFRNYGMAWVRQAPGKGLEWVSWIDASGTETYYADSVKGRFTISRDNSKNTLYLQMNSLRAEDTAVYYCAKSLGRFDYWGQGTLVTVSSASTKGPSGVQLLESGGGLVQPGGSLRLSCAASGFIFAWYDMGWVRQAPGKGLEWVSSIDWHGEVTYYADSVKGRFTISRDNSKNTLYLQMNSLRAEDTAVYYCATAEDEPGYDYWGQGTLVTVSS
notes: in-line fusion of two VH dAbs; also called dual specific ligand

- IC50 (human IL-13 [2]): 3000 nM
B19: DOM10-276 (other)
VH: B18 VH with E30R, L31D, E32Y, S52G, G53P, G56S, S57E, G102S
notes: VH dAb

- IC50 (human IL-13 [12]): 39.2 nM
B22: DOM10-275-1-DOM9-155-78 (bispecific antibody)
chain: EVQLLESGGGLVQPGGSLRLSCAASGFTFDREEMDWVRQAPGKGLEWVSTISPSGRKTYYADSVKGRFTISRDNSKNTLYLQMNSLRAEDTAVYYCAKAYTGFDYWGQGTLVTVSSASTKGPSDIQMTQSPSSLSASVGDRVTITCRASRHIGDWLHWYQQKPGKAPKLLIAWASTLDSGVPSRFSGSGSGTDFTLTISSLQPEDFATYYCLQEGWGPPTFGQGTKVEIKR

- IC50 (human IL-13 [9]): 0.31 nM
- IC50 (human IL-4 [11]): 13 nM
B23: PEGylated DOM9-112 (AST) DOM10-53-343 (bispecific antibody)
chain: EVQLLESGGGLVQPGGSLRLSCAASGFTFRNYGMAWVRQAPGKGLEWVSWIDASGTETYYADSVKGRFTISRDNSKNTLYLQMNSLRAEDTAVYYCAKSLGRFDYWGQGTLVTVSSASTEVQLLESGGGLVQPGGSLRLSCAASGFIFAWYDMGWARQAPGKGLEWVSSIDWHGEVTYYADSVKGRFTISRDNSKNTLYLQMNSLRAEDTAVYYCATAEDEPGYDYWGQGTLVTVSSC
modifications: 40K PEG2-MAL on the C-terminal cysteine
notes: in-line fusion of two VH dAbs made in Pichia pastoris; also called dual specific ligand
